Results published in US20060009622A1 (ADMINISTRATORS OF THE TULANE EDUCATIONAL FUND, published 2006).
Numbered stars: 1 amine (or outer) side, 2 acyl side, 3 side chain; on linkers, the order of the positions; unused ones are H or OH. Bridge positions count the residues as written; N and C are the ends. Square brackets hold non-standard residues; d marks the D form. Ends that are not written are not given here. NGly(2-(methylamino)ethyl) = CN(CCN(CC(=O)[*:2])[*:1])[*:3]; N(2-Aminoethyl)Gly = O=C(CN(CCN[*:3])[*:1])[*:2]; Nle = CCCC[C@H](N)C(=O)O

Molecular target: human type 2 somatostatin receptor (human, UniProt P30874 1-369, limits assumed)
Assay: cell-based or functional assay

Sequence of human type 2 somatostatin receptor (P30874 whole entry): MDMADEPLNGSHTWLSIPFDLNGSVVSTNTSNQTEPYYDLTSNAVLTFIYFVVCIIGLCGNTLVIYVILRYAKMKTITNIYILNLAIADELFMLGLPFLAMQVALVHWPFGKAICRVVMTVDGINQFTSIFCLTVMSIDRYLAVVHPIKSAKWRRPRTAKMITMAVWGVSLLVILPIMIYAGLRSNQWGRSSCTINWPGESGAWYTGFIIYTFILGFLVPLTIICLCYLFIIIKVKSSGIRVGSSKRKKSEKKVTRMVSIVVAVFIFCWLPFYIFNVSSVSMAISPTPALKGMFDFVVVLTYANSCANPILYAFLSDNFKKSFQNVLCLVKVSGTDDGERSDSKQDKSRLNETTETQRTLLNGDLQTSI

Growth Hormone Inhibition IC50, nM (inhibition of GNRH-stimulated GH release from monolayer cultures of rat pituitary cells) [nM] | Molecule
0.63 | somatostatin-14 (from UniProt P61278 89-116) (peptide)
0.32 | [N(2-Aminoethyl)Gly][dS][Nle][dY][dS]CF[dW]KTCT-NH2 (disulfide 6-11; not fully specified (N-terminus); printed as camptothecin-carbonyl-N-(2-aminoethyl)-glycine-D-Ser-Nle-D-Tyr-D-Ser-cyclo[Cys-Phe-D-Trp-Lys-Thr-Cys]-Thr-amide)
0.27 | [NGly(2-(methylamino)ethyl)][dS][Nle][dY][dS]CF[dW]KTCT-NH2 (disulfide 6-11; not fully specified (N-terminus); printed as camptothecin-carbonyl-N-(N-methyl-2-aminoethyl)-glycine-D-Ser-Nle-D-Tyr-D-Ser-cyclo[Cys-Phe-D-Trp-Lys-Thr-Cys]-Thr-amide)
0.31 | [N(2-Aminoethyl)Gly][dS][Nle][dY][dS]CF[dW]KTCT-NH2 (disulfide 6-11; not fully specified (N-terminus); printed as combretastatin-carbonyl-N-(2-aminoethyl)-glycine-D-Ser-Me-D-Tyr-D-Ser-cyclo[Cys-Phe-D-Trp-Lys-Thr-Cys]-Thr-amide)
